{"source": "patent US20260103529A1", "about": "“Amino Acid Sequences Directed Against the Melanocortin 4 Receptor and Polypeptides Comprising the Same for the Treatment of MC4R-Related Diseases and Disorders” (Confo Therapeutics N.V., priority 2022, published 2026)", "molecules": {"B1": {"name": "pN162: agonistic anti-MC4R VHH, SEQ ID NO: 184; parental clone for potency maturation (protein)", "VHH": "QVQLVESGGGLVQPGGSLRLSCAASGSAFSLNVMGWYRQTPGNQRALVAEITKDGSTNYADSAKGRFTISRDNAKNTVHLQMDSLKPEDTAVYYCKARTGRIVRPLDYWGQGTQVTVSS", "modifications": "pN0162"}}, "key": {"[1]": {"biological_target": "T1, human MC4R (Homo sapiens, UniProt P32245)", "T1 construct": "Flag; expressed in transfected cells; host or cells: HEK293T", "T1 sequence (P32245 whole entry)": "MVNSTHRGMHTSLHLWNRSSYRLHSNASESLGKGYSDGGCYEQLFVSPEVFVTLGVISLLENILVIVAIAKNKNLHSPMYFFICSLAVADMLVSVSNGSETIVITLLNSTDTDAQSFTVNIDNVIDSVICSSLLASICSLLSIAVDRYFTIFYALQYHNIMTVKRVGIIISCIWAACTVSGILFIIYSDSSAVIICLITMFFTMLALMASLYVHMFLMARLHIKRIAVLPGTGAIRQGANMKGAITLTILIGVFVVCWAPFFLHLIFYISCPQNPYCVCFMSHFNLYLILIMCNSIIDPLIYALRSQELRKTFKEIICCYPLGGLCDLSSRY", "experiment": "Flow cytometry binding to Flag-tagged receptor in HEK293T cells, MC4R", "conditions": "1 μM", "description": "(§1) To confirm MC4R activation, dose-dependent nanobody-induced cAMP signaling was assessed (Lance Ultra HTRF). […] Binding of pN162 to the human melanocortin receptor subtypes MC1R, MC2R, MC3R, MC4R or MC5R transiently expressed as Flag-tagged receptors in HEK293T cells was assessed by flow cytometry."}, "[2]": {"test_system": "melanized reconstituted human epidermis (RHE/MEL/001)", "experiment": "In vitro pigmentation assay, 3D reconstituted human epidermis, dermoscopy", "type": "cell-based", "description": "The study was carried out on melanized human epidermis (RHE/MEL/001; batch CB0521-3) in vitro reconstituted with NHEKs (Normal human epidermal keratinocytes, Lonza 00192906) isolated from foreskin of 3 neonatal Caucasian donors and NHEM-DP (Normal Human Epidermal Melanocytes-Darkly pigmented) isolated form one donor (phototype IV-V). The tissues were cultured at the air-liquid interface in Epilife medium (Fisher Scientific, MEP1500CA) containing specific supplements (with among others Human Keratinocytes Growth Factors, Fisher Scientific S0015 or SO01K) and antibiotics (Gentamycin, Fisher Scientific, 15710049). They were maintained in a humid atmosphere at 37° C. with 5% CO2.\nRHE/MEL/001 were reconstituted and cultivated at the air-liquid interface during 14 days in Epilife medium supplemented with specific growth supplements (as described in paragraph 1) in a humid atmosphere at 37° C. with CO2 5%.\nIBMX (Sigma; 15879) at 100 µM was used as tanning reference compound to validate the experiment. A DMSO control (corresponding to the solvent used to solubilize IBMX) at 0.02% (corresponding to the final concentration in DMSO found in the culture medium for the condition treated with IBMX) was planned as well. Four replicates were planned per condition (n=4).\nAt the end of the 10 days treatments (at day 14), macroscopic high-resolution pictures of tissues (n=4) were taken. This was performed using the C-Cube device (Dermoscope type tool; Pixience, France) coupled to C-Cube clinical 3 software, which uses a proprietary method of colour calibration, and provides razor-sharp images of high quality and precision. The following endpoints were calculated, each one taking into account 3 values from the mode “L* a* b*” with L* reflecting the luminance/brightness (value from 0 to 100 with high values for clear skins), a* to gives an idea about the redness of the skin (value from −60 to 60 on the red/green axis) and b* to gives an idea about the yellowness of the skin (value from −60 to 60 on the blue/yellow axis): • ITA (Individual Typology Angle) characterizing the phototype, compared to a standard scale, with ITA>55° for very clear skins and ITA<−30° for black skins. • PI (Pigmentation Index) whose value is directly proportional to the skin pigmentation, with PI from 140 for clear skins to 200 for dark skins. • Colorimetric difference (score or ΔE) allows to quantify colour variation between a test condition and a reference. […]\nThe two test items, hydro-soluble, were evaluated in parallel of one reference compound known to be a pigmentation inducer, namely IBMX. Their capacity to stimulate the production of melanin was evaluated by visual quantification of melanin on macroscopic high resolution pictures obtained by dermoscopy. […]"}, "[3]": {"biological_target": "T2, human MC2R (Homo sapiens, UniProt Q01718)", "T2 construct": "Flag; expressed in transfected cells; host or cells: HEK293T", "T2 sequence (Q01718 whole entry)": "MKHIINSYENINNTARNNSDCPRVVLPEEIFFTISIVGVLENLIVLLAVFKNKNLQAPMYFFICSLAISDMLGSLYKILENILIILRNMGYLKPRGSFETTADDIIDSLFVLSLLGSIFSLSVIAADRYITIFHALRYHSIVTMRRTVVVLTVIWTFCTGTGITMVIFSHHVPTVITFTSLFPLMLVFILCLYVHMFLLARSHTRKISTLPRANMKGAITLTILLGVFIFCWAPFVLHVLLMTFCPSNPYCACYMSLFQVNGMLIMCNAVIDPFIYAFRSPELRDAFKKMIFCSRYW", "experiment": "Flow cytometry binding to Flag-tagged receptor in HEK293T cells, MC2R", "conditions": "1 μM", "description": "as §1"}, "[4]": {"test_system": "highly pigmented normal human epidermal melanocytes (NHEM-HP)", "experiment": "In vitro pigmentation assay, melanin synthesis, 2D NHEM highly pigmented", "type": "cell-based", "conditions": "10 μM, 10 days", "description": "Highly and moderately pigmented melanocytes were seeded in 24-well plates and cultured in culture medium for 24 hours. The medium was then replaced by culture medium containing or not (control) the test compounds or the reference compounds (L-tyrosine at 1 mM, IBMX at 100 and 200 μM and NDP-MSH at 10 μM). The cells were then incubated for 10 days with treatment renewal at day 3 and day 7. All experimental conditions were performed in n=3. At the end of the incubation time, the culture supernatants were removed, and melanin was extracted by cell lysis using a 0.5 N NaOH solution. The optical density (OD) of each experimental point was measured at 405 nm and melanin quantity was determined according to melanin standard curve (standard curve ranging from 0.39 to 100 μg/ml). The results were expressed in μg/ml of melanin. […] NHEM-HP response to L-tyrosine and NDP-MSH was stronger than in NHEM-MP while IBMX induced a stronger response in the NHEM-MP."}, "[5]": {"biological_target": "T3, human wild type MC5R (Homo sapiens, UniProt P33032)", "T3 construct": "expressed in transfected cells; host or cells: HEK293 / HEK 293T, pcDNA3.1(+)", "T3 sequence (P33032 whole entry)": "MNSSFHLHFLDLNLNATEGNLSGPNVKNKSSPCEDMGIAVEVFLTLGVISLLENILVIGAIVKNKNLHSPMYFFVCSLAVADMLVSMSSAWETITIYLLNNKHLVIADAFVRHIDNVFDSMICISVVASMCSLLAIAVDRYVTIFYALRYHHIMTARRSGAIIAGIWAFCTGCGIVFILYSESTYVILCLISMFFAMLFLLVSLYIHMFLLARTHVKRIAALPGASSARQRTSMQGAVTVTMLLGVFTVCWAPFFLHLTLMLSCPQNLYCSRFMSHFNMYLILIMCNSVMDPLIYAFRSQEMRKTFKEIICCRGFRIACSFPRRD", "experiment": "cAMP GloSensor assay, MC5R", "type": "cell-based"}, "[6]": {"biological_target": "T4, WT human MC4R (Homo sapiens, UniProt P32245)", "T4 construct": "Flag (N); expressed in transfected cells; host or cells: HEK293T", "T4 sequence (P32245 whole entry)": "as the sequence (P32245 whole entry) above", "experiment": "Gs ConfoSensor recruitment assay", "type": "cell-based", "conditions": "for EC50: WT human MC4R-expressing HEK293T cells"}, "[7]": {"biological_target": "T5, human MC1R (Homo sapiens, UniProt Q01726)", "T5 construct": "Flag; expressed in transfected cells; host or cells: HEK293T", "T5 sequence (Q01726 whole entry)": "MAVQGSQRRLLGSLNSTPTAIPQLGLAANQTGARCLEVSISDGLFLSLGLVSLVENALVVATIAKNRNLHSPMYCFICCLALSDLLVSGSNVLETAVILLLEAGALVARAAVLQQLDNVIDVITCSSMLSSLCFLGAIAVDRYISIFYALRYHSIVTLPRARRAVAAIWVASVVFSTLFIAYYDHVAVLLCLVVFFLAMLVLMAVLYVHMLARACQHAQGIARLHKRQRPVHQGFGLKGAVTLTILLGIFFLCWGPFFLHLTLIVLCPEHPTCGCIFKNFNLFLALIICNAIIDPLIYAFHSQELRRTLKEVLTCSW", "experiment": "Flow cytometry binding to Flag-tagged receptor in HEK293T cells, MC1R", "conditions": "1 μM", "description": "as §1"}, "[8]": {"conditions": "10 μM in culture medium, 10 days, dermoscopy"}}, "note": "Where two headings read alike, the source gives them in different places."}
{"molecule": "B1", "values": [{"measurement": "binding to MC4R by flow cytometry", "setting": "[1]", "result": "only demonstrated for MC4R"}, {"measurement": "Individual typology angle (ITA)", "setting": "[2]; [8]", "result": "No significant effects"}, {"measurement": "pigmentation index (PI)", "setting": "[2]; [8]", "result": "No significant effects"}, {"measurement": "visual colorimetric difference (score, ΔE)", "setting": "[2]; [8]", "result": "No significant effects"}, {"measurement": "effect on epidermis pigmentation (conclusion of dermoscopy analysis)", "setting": "[2]; 10 μM, human epidermis in culture", "result": "no effect on epidermis pigmentation"}, {"measurement": "binding to MC2R by flow cytometry", "setting": "[3]", "result": "No binding could be detected"}, {"measurement": "melanin synthesis", "setting": "[4]", "result": "89 % of the control"}, {"measurement": "detectable cAMP signaling, MC5R", "setting": "[5]; GloSensor head-to-head receptor subtype comparison", "result": "only induced detectable signaling on MC4R"}, {"measurement": "cAMP potency (EC50) MC5R", "setting": "[5]; GloSensor, average EC50, human MC5R", "result": "No effect"}, {"measurement": "Gs recruitment", "setting": "[6]; Flag-tagged WT human MC4R HEK293T cells", "result": "dose-dependently recruits"}, {"measurement": "EC50", "setting": "[6]; No Ca^2+, read-out: Gs ConfoSensor No Ca^2+ (EC50)", "result": "8.5 ± 2.1", "unit": "nM"}, {"measurement": "dependence of Gs recruitment on Ca2+ ions", "setting": "[6]; absence vs presence of 1 mM Ca2+", "result": "independent of Ca^2+ ions"}, {"measurement": "EC50", "setting": "[6]; read-out: Gs ConfoSensor 1 mM Ca^2+ (EC50), 1 mM Ca^2+", "result": "12 ± 5", "unit": "nM"}, {"measurement": "binding to MC1R by flow cytometry", "setting": "[7]", "result": "No binding could be detected"}]}
